# Test results published in publication PMC8357123, “Modeling of DNA binding to the condensin hinge domain using molecular dynamics simulations guided by atomic force microscopy” (PLoS Computational Biology, 2021).
# T1: Smc4 (S. cerevisiae (budding yeast), UniProt Q12267 1-1418)
# T1 construct: Smc4, subunit of the budding yeast condensin complex; The holo-complex was purified over HisTrap and Strep-Tactin; also called condensin subunit Smc4
# T1 sequence (looked up): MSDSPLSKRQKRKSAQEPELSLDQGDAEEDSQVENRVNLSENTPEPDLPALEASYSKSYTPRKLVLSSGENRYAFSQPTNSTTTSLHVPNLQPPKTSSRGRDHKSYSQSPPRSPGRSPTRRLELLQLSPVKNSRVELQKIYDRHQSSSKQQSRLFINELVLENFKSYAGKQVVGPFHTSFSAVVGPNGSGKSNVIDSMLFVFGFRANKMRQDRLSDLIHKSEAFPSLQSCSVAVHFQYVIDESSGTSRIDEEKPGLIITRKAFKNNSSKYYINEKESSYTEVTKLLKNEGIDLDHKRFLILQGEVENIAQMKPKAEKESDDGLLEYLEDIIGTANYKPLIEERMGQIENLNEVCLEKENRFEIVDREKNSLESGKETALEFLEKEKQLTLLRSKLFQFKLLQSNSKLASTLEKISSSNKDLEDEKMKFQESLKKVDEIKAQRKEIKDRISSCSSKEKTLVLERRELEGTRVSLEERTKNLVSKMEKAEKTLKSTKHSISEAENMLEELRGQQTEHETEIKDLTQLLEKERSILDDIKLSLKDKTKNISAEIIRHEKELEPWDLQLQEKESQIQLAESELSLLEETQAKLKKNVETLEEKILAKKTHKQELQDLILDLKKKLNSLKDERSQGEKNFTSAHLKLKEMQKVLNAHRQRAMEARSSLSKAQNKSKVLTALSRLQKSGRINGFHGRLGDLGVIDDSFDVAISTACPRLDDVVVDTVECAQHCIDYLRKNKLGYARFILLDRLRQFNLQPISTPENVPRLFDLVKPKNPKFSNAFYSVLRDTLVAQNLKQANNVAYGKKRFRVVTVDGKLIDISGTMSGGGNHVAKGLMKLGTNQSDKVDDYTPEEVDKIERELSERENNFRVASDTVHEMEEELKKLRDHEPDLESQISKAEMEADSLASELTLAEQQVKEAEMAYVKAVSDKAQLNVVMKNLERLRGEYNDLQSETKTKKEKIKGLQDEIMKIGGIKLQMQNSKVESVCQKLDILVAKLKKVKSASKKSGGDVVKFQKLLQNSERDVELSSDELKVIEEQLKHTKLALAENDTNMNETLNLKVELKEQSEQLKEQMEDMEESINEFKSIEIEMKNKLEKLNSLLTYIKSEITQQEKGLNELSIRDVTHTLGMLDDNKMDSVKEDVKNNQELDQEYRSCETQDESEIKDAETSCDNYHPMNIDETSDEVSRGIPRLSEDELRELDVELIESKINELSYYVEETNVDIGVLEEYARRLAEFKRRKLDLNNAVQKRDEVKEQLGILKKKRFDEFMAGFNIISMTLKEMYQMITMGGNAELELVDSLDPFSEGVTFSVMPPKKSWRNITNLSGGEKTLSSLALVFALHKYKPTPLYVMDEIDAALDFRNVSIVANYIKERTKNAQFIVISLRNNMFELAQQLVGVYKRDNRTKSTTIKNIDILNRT
# Molecular target: T1, Smc4
# Assay: high-speed atomic force microscopy (HS-AFM); 1 nM purified condensin holo-complex on bare mica in 40 mM Tris-HCl pH7.5, 125 mM KCl, 10 mM MgCl2, 1 mM DTT, 4 mM ATP; room temperature; 150 ms/frame; 36 molecules observed
# Details: both partners purified
binder,measurement,value
"Smc2 (natural protein, S. cerevisiae (budding yeast), UniProt P38989 1-1170, looked up, Smc2, subunit of the budding yeast condensin complex; The holo-complex was purified over HisTrap and Strep-Tactin; also called condensin subunit Smc2) MKVEELIIDGFKSYATRTVITDWDPQFNAITGLNGSGKSNILDAICFVLGIASMSTVRASSLQDLIYKRGQAGVTKASVTIVFDNTDKSNSPIGFTNSPQISVTRQVVLGGTSKYLINGHRAPQQSVLQLFQSVQLNINNPNFLIMQGKITKVLNMKPSEILSLIEEAAGTKMFEDRREKAERTMSKKETKLQENRTLLTEEIEPKLEKLRNEKRMFLEFQSTQTDLEKTERIVVSYEYYNIKHKHTSIRETLENGETRMKMLNEFVKKTSEEIDSLNEDVEEIKLQKEKELHKEGTISKLENKENGLLNEISRLKTSLSIKVENLNDTTEKSKALESEIASSSAKLIEKKSAYANTEKDYKMVQEQLSKQRDLYKRKEELVSTLTTGISSTGAADGGYNAQLAKAKTELNEVSLAIKKSSMKMELLKKELLTIEPKLKEATKDNELNVKHVKQCQETCDKLRARLVEYGFDPSRIKDLKQREDKLKSHYYQTCKNSEYLKRRVTNLEFNYTKPYPNFEASFVHGVVGQLFQIDNDNIRYATALQTCAGGRLFNVVVQDSQTATQLLERGRLRKRVTIIPLDKIYTRPISSQVLDLAKKIAPGKVELAINLIRFDESITKAMEFIFGNSLICEDPETAKKITFHPKIRARSITLQGDVYDPEGTLSGGSRNTSESLLVDIQKYNQIQKQIETIQADLNHVTEELQTQYATSQKTKTIQSDLNLSLHKLDLAKRNLDANPSSQIIARNEEILRDIGECENEIKTKQMSLKKCQEEVSTIEKDMKEYDSDKGSKLNELKKELKLLAKELEEQESESERKYDLFQNLELETEQLSSELDSNKTLLHNHLKSIESLKLENSDLEGKIRGVEDDLVTVQTELNEEKKRLMDIDDELNELETLIKKKQDEKKSSELELQKLVHDLNKYKSNTNNMEKIIEDLRQKHEFLEDFDLVRNIVKQNEGIDLDTYRERSKQLNEKFQELRKKVNPNIMNMIENVEKKEAALKTMIKTIEKDKMKIQETISKLNEYKRETLVKTWEKVTLDFGNIFADLLPNSFAKLVPCEGKDVTQGLEVKVKLGNIWKESLIELSGGQRSLIALSLIMALLQFRPAPMYILDEVDAALDLSHTQNIGHLIKTRFKGSQFIVVSLKEGMFANANRVFRTRFQDGTSVVSIM",binding result,binds
